Experimental data: patent publication CN116574180A

Biological target: 生物素标记的抗原多肽 (biotin-labelled human collagen IV α1 chain peptide, synthesised by GenScript) (human)
Assay: BLI (Fortebio Octet); biotinylated peptide on SA biosensor, antibody at 100-1.56 nM

B1: 8A12D2-2 (antibody, V domains shown)
VH: EVQLQQSGAELVKPGASVKLSCTASGFNIKDHYMHWVKQRTKQGLEWIGRIDPEDGKTNSAPEFQDKATITSDISSNTVYLQLYSLTSEDTAVYYCAYSNFGFAYWGRGTLVTVSA
VL: DIVMTQAAFSNPVTLGTSTSISCRSSRSLLHSNGITYLYWYLQKPGQSPQLLIYQMSSLASGVPDRFSANGSGTDFTLRISRVEAEDVGVYYCAQKLGLPYTFGGGTKLEIK
Kd: 0.376 nM
